Patent US5981483A, “Compositions comprising modulators of cytokines of the TGF-β superfamily” (Mount Sinai Hospital Corporation, priority 1997, dated 1999)
pIC50, pKd: −log10 of the molar value.

Tests used:
[1] = target: T1, TGF-β1 binding to TβRII (Homo sapiens, UniProt P01137); assay: Competition of TGF-β1 binding to immobilized TβRII (Quantikine ELISA); settings: 40 pM TGF-β1; fetuin 40 μM, TRH1 peptide from TβRII 20 μM; FIG. 14
T1 construct: The mature processed cytokines produced from the members of the gene family show almost 100% amino acid identity between species; purchased R&D Systems
T1 sequence (P01137 279-390 limits assumed): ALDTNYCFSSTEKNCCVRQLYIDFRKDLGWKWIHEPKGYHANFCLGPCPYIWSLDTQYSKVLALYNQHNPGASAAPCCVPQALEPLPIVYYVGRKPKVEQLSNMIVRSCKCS
Procedure: Inhibition of TGF-β1 binding to TβRII was carried out using the Quantikine ELISA kit (R&D Systems). In particular, 96 well plates were pre-coated with the extracellular domain of TβRII. […] This was followed by a 5 minute incubation with the TβRII coated ELISA wells with shaking, washing as recommended, and a 1 hr incubation with the polyclonal anti-TGF-β1 antibody. Plates were developed as per the instructions, and determinations were made in triplicate.

[2] = target: T2, TGF-β1 (Homo sapiens, UniProt P01137); assay: BIAcore surface plasmon resonance, binding to immobilized TGF-β1; settings: ligand TGF-β1
T2 construct: The mature processed cytokines produced from the members of the gene family show almost 100% amino acid identity between species; purchased Collaborative Research (Bedford, Mass.)
T2 sequence (P01137 279-390 limits assumed): as above
Procedure: In this system, a purified protein serving as the ligand is covalently coupled to a carboxymethylated dextran surface, and binding molecules (i.e. the analyte) are passed in a fluid phase across the surface. Binding of the analyte to ligand causes a change in reflected light which is directly proportional to mass bound, and is measured in arbitrary response units (R.U.). Analyte-ligand binding is observed as both increasing response with time during the injection of analyte, and the difference in the position of the baseline before and after injection.
Schuster, R. V. Swanson, L. A. Alex, R. B. Bourret, M. I. Simon, Nature 365, 343 (1993). 1000 R.U. equals approximately 1 ng/mm^2. The running buffer was 20 mM Hepes (pH 7.2), 150 mM NaCl and the flow rate for all sensorgrams was 3 μl/min.
Regeneration of the surface to remove bound analyte was done by injection of 10 μl of 20 mM NaOH. To cyclize TRH1 peptides, the material was reduced with 5 mM DTT then brought to a final concentration of 60 μM in 25 mM ammonium acetate (pH 8.5). After stirring in the dark for 30 min at 20° C. with 30 mM potassium ferricyanide, the peptide was mixed with AG3-X4A resin (BioRad), filtered, lyophilization and desalted on a 50×2.5 cm column of Biogel P2 (Pharmacia) developed in water, and further purified by reverse phase HPLC.
Injection volumes were 36 μl for FIG. 2, 4 and 5 and 45 μl for FIG. 3. […] Protein concentrations in each experiment were (FIGS. 2 and 3), 2, 5, 10, 20, 30, 40 μM; (FIG. 4), 0.21, 0.31, 0.41, 0.62, 0.82, 1.24 μM; (FIG. 5), 0.22, 0.29, 0.44, 0.59, 0.88 μM. R.U. for the immobilized cytokine in each experiment was 2850 R.U. for FIGS. 2 and 3; 7450 R.U. for FIG. 4, and 5300 R.U., for FIG. 5 respectively.
Data was analyzed using the BIA-evaluation software (Pharmacia Biosensor). The association rate constant, kass, was calculated by first plotting the change in response with time versus response (i.e. dR/dT vs R). When the slope of the line from this graph is plotted versus analyte concentration (i.e d(dR/dT)/dR vs C), kass is obtained from the slope of the line. The dissociation rate constant, kdiss, is obtained during the decrease in response with time after analyte injection is discontinued. Specifically, kdiss was obtained from the slope of the line in a plot of ln(Rt1 /Rtn) vs time. The affinity constants were calculated from KD =kdiss /kass. Variance for kass is standard error of the linear regression plot, and for kdiss values are the mean ± range of 3 or more independent injections.

[3] = system: Mv1Lu cells; assay: 3H-Thymidine incorporation in Mv1Lu cells: proliferation / growth; type: cell-based, mink; settings: absence of cytokines, FIG. 12; read-out: IC50, stimulated proliferation of Mv1Lu cells
[4] = target: T2, TGF-β1; assay: 3H-Thymidine incorporation in Mv1Lu cells: neutralization of the antiproliferative activity of TGF-β1; type: cell-based
Procedure: Mv1Lu cells were seeded at 20,000 cells/well in a 96 well plate containing 0.2% FCS in α-MEM and incubated with the indicated concentrations of proteins for 18 hr. The cells were then pulsed with 8 μCi/ml methyl-^3 H-thymidine (NEN, Boston, Mass.) for 6 hr. Cells were trypsinized, harvested onto filtermats and counted in a β-Counter. Percent neutralization is defined as incorporation in the presence of 12 pM TGF-β1 alone set at 0%, and incorporation without additions as 100%. The difference in ^3 H-thymidine incorporation between 0% and 100% was 7.5 fold. Each point in FIG. 1 and FIG. 12 represents the mean of duplicate determinations, and the results are representative of three experiments. […] Before use, bovine thyroglobulin was spun twice in a centricon (M.W. cutoff of 10,000 Da) micro-concentrator (Amicon, Beverly, Mass.) to remove any excess Iodine and T3/T4 thyroid hormones.

[5] = system: rat bone marrow stromal cells; assay: Dexamethasone-treated rat bone marrow stromal cell cultures (proliferation, mineralization, TGF-β levels); type: cell-based
Procedure: The methods used in the studies described in this example and illustrated in FIGS. 16 and 17 are as follows. Femoral bones were removed under aseptic conditions from adult male Wistar rats (120 g), cleaned of adherent soft tissues, and washed extensively in antibiotics. The distal ends were removed and the marrow contents were flushed out with 10 ml of culture medium. The cells were dispersed by repeated passage through a 20 gauge needle and incubated in alpha-MEM supplemented with 15% fetal bovine serum, ascorbic acid (50 μg/ml), antibiotics (penicillin G 100 μg/ml, gentamicin 50 μg/ml, fungizone 0.3 μg/ml) and 10 mM β-glycerophosphate. […] Following 6 days of culture at 37° C. in a humidified atmosphere containing 5% CO2 in air, the cells were re-plated at a density of 1×10^2 cell/mm^2 in 96 multi-well plates (Falcon 3047), and grown for another 12-14 days. At the end of culture, the cells were fixed and stained for calcium with alizarin red-s for quantification of bone nodule area (reported as mineralized area (mm^2)/well). To assess mineralized tissue formation in the cultures morphometric measurements were carried out with the aid of a Bioquant IV system (Bioquant, Nashville, Tenn., U.S.A.) using a Leitz Orthoplan microscope. TGF-β in culture supernatants taken 4 days prior to scoring mineralization were measured with and without heat activation (80° C. for 10 min) using the Mink cells as the indicator cell line as described in FIG. 12.

[6] = Table 2 (calculations repeated)

Fetuin: Bovine fetal fetuin, glycoprotein obtained by ammonium sulfate fractionation of FCS and gel filtration (Sigma)
inhibition of TGF-β1 binding to immobilized recombinant TβRII [1]: competitive inhibitors | kass ([2]; Table 1): 670 ± 400 M⁻¹ s⁻¹ | kass ([2]; Table 1, listed as fetuin): 670 M⁻¹ s⁻¹ | kdiss ([2]; Table 1, listed as fetuin): 0.16 s⁻¹ | kass [2, 6]: 870 ± 270 M⁻¹ s⁻¹ | kdiss [2, 6]: 0.0019 s⁻¹ | pKd ([2]; Table 2 (calculations repeated), KD = kdiss/kass, listed as b-Fetuin): 5.66 | pIC50 [3]: 5.10 | Maximal effect, percent neutralization ([4]; 12 pM TGF-β1, FIG. 1): approximately 150% | pIC50 ([4]; 18 pM human TGF-β1, FIG. 12, read-out: IC50, blocking of anti-proliferative activity of exogenously-added TGF-β1): ~5.52 | BMP-2 induced osteogenesis in the cultures ([5]; data not shown): could be blocked | deposition of calcium-containing matrix ([5]; dexamethasone-treated bone marrow cultures, latter two weeks, FIGS. 16 and 18): inhibited deposition of calcium-containing matrix | cell number during the first week of culture (proliferative phase) ([5]; dexamethasone-treated, FIG. 15): stimulated an increase in cell number
